Results on one molecule are retold here after PMC3569036 (FEBS letters, 2012).

This experiment concerns the target calmodulin (vertebrate CaM amino acid sequence, encoded by a rat cDNA) (rat, UniProt P0DP29 1-149). As to the kind of experiment: cryo-EM structure.

B1: bovine endothelial nitric oxide synthase (eNOS) with the phosphomimetic S1179D substitution (enzyme)
chain: MGNLKSVGQEPGPPCGLGLGLGLGLCGKQGPASPAPEPSRAPAPATPHAPDHSPAPNSPTLTRPPEGPKFPRVKNWELGSITYDTLCAQSQQDGPCTPRCCLGSLVLPRKLQTRPSPGPPPAEQLLSQARDFINQYYSSIKRSGSQAHEERLQEVEAEVASTGTYHLRESELVFGAKQAWRNAPRCVGRIQWGKLQVFDARDCSSAQEMFTYICNHIKYATNRGNLRSAITVFPQRAPGRGDFRIWNSQLVRYAGYRQQDGSVRGDPANVEITELCIQHGWTPGNGRFDVLPLLLQAPDEAPELFVLPPELVLEVPLEHPTLEWFAALGLRWYALPAVSNMLLEIGGLEFSAAPFSGWYMSTEIGTRNLCDPHRYNILEDVAVCMDLDTRTTSSLWKDKAAVEINLAVLHSFQLAKVTIVDHHAATVSFMKHLDNEQKARGGCPADWAWIVPPISGSLTPVFHQEMVNYILSPAFRYQPDPWKGSATKGAGITRKKTFKEVANAVKISASLMGTLMAKRVKATILYASETGRAQSYAQQLGRLFRKAFDPRVLCMDEYDVVSLEHEALVLVVTSTFGNGDPPENGESFAAALMEMSGPYNSSPRPEQHKSYKIRFNSVSCSDPLVSSWRRKRKESSNTDSAGALGTLRFCVFGLGSRAYPHFCAFARAVDTRLEELGGERLLQLGQGDELCGQEEAFRGWAKAAFQASCETFCVGEEAKAAAQDIFSPKRSWKRQRYRLSTQAEGLQLLPGLIHVHRRKMFQATVLSVENLQSSKSTRATILVRLDTAGQEGLQYQPGDHIGICPPNRPGLVEALLSRVEDPPPPTESVAVEQLEKGSPGGPPPSWVRDPRLPPCTLRQALTFFLDITSPPSPRLLRLLSTLAEEPSEQQELETLSQDPRRYEEWKWFRCPTLLEVLEQFPSVALPAPLLLTQLPLLQPRYYSVSSAPNAHPGEVHLTVAVLAYRTQDGLGPLHYGVCSTWLSQLKTGDPVPCFIRGAPSFRLPPDPYVPCILVGPGTGIAPFRGFWQERLHDIESKGLQPAPMTLVFGCRCSQLDHLYRDEVQDAQERGVFGRVLTAFSREPDSPKTYVQDILRTELAAEVHRVLCLERGHMFVCGDVTMATSVLQTVQRILATEGDMELDEAGDVIGVLRDQQRYHEDIFGLTLRTQEVTSRIRTQDFSLQERHLRGAVPWAFDPPGPDTPGP
For B1, the binding result is “binds”.
